Assay [1] addresses human vascular endothelial growth factor 165 (hVEGF), E. coli-derived, after tag cleavage (human). As to the kind of experiment: SEC; SEC-HPLC, Protein-pak 300SW SEC 7.5 x 300 mm column, 1X PBS pH 7.4, room temperature, 1 mL/min, detection at 280 nm; peaks checked on non-reducing SDS-PAGE.
For assay [2] the target is unchanged. As to the kind of experiment: non-reducing SDS-PAGE; purified hVEGF in sample buffer with SDS, without DTT (non-reducing) against with 100 mM DTT (reducing), tricine SDS-PAGE, Coomassie stain; shows disulfide-linked forms.

Consider 1 substance from PMC4883780.

Regarding “human vascular endothelial growth factor 165 (hVEGF), E. coli-derived, after tag cleavage (ligand)”, the stoichiometry N in assay [1] and in assay [2] was 2 in each case.
